T1: human BCMA (B cell mature antigen, CD269, TNFRSF17) on cells (human, UniProt Q02223 1-184)
T1 sequence: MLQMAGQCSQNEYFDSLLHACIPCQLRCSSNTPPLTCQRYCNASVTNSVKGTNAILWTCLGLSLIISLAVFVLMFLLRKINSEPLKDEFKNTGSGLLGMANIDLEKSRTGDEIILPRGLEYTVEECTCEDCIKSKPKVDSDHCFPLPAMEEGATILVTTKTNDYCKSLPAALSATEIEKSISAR

T2: CD38 on K562.CD38.Luc cells (UniProt P28907 1-300, limits assumed)
T2 sequence (looked up): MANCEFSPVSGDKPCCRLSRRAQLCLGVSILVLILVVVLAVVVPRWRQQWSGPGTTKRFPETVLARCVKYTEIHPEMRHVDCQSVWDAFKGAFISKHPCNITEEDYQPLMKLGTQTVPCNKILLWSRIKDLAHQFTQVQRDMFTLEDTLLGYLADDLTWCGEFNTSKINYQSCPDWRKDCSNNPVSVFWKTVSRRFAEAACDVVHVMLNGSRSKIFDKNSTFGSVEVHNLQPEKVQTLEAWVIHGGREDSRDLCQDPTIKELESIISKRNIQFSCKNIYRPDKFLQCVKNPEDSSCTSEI


What was measured:
Test in all cases: cell-based or functional assay
[1] = target: human BCMA (B cell mature antigen, CD269, TNFRSF17) on cells (human) (UniProt Q02223)
[2] = target: T1, human BCMA (B cell mature antigen, …)
[3] = target: T2, CD38 on K562.CD38.Luc cells

Row | Molecule | percentage of remaining viable RPMI8226.Luc cells (remaining luciferase activity), CAR-T from patient A, E/T 5:1, 20 hours [1] | percentage of remaining viable RPMI8226.Luc cells (remaining luciferase activity), CAR-T from patient A, E/T 20:1, 20 hours [1] | percentage of remaining viable RPMI8226.Luc cells (remaining luciferase activity), CAR-T from patient B, E/T 5:1, 20 hours [1] | percentage of remaining viable RPMI8226.Luc cells (remaining luciferase activity), CAR-T from patient B, E/T 20:1, 20 hours [1] | percentage of remaining viable RPMI8226.Luc cells (remaining luciferase activity), CAR-T from patient C, E/T 5:1, 20 hours [1] | percentage of remaining viable RPMI8226.Luc cells (remaining luciferase activity), CAR-T from patient C, E/T 20:1, 20 hours [1] | IFN gamma release in co-culture with RPMI8226.Luc, mean [2] | IFN gamma release in co-culture with Raji.Luc, mean [2] | IFN gamma release in co-culture with K562.CD38.Luc (BCMA negative control; UnT 85.65 pg/ml), mean [3]
1 | LCAR-B27S CAR | 68.6% | 3.17% | 84% | 9.32% | 101% | 10.1% |  |  | 
2 | LCAR-B38M CAR | 33.4% | 3.97% | 40.9% | 4.45% | 30% | 2.56% |  |  | 
3 | BCAR001 (other) QVKLEESGGGLVQAGRSLRLSCAASEHTFSSHVMGWFRQAPGKERESVAVIGWRDISTSYADSVKGRFTISRDNAKKTLYLQMNSLKPEDTAVYYCAARRIDAADFDSWGQGTQVTVSSGGGGSAVQLVESGGGLVQAGDSLRLTCTASGRAFSTYFMAWFRQAPGKEREFVAGIAWSGGSTAYADSVKGRFTISRDNAKNTVYLQMNSLKSEDTAVYYCASRGIEVEEFGAWGQGTQVTVSSTSTTTPAPRPPTPAPTIASQPLSLRPEACRPAAGGAVHTRGLDFACDIYIWAPLAGTCGVLLLSLVITLYCKRGRKKLLYIFKQPFMRPVQTTQEEDGCSCRFPEEEEGGCELRVKFSRSADAPAYQQGQNQLYNELNLGRREEYDVLDKRRGRDPEMGGKPRRKNPQEGLYNELQKDKMAEAYSEIGMKGERRRGKGHDGLYQGLSTATKDTYDALHMQALPPR |  |  |  |  |  |  | 1100 pg/mL | 796 pg/mL | 136 pg/mL

From US20200078399A1 (LEGEND BIOTECH USA, published 2020)
